Experimental findings from paper doi:10.1101/2025.01.07.631698 are described below.

Like-named read-outs stand apart in the source and are kept apart here.

In test [1] the target is microtubules polymerised from porcine tubulin (porcine) (UniProt P02550). As to the kind of experiment: FRAP.
Test [2] has the same target. Put plainly: FRAP. This is another data set of the same source.

“Anillin-GFP (full-length human anillin, isoform 2, 1087 amino acids) (from UniProt Q9NQW6-2 1-1087) (natural protein)”: the results for the koff in test [1] and in test [2] were 0.26 s⁻¹ and 1.07 s⁻¹, respectively.
